Data as given in article PMC6815954, “Rational design of caspase-responsive smart molecular probe for positron emission tomography imaging of drug-induced apoptosis” (Theranostics, 2019).

Substrate: CC(=O)N[C@@H](CC(=O)O)C(=O)N[C@@H](CCC(=O)O)C(=O)N[C@H](C(=O)N[C@@H](CC(=O)O)C(=O)N[C@@H](CSSC(C)(C)C)C(=O)N[C@@H](Cc1cn(CC[N+](C)(C)C[B-](F)(F)F)nn1)C(=O)Nc1ccc2nc(C#N)sc2c1)C(C)C
Assay: Enzyme kinetics study of cleavage of 1
Assay type: biochemical, human
Conditions: other: 1 at 0.1-2 mM, caspase-3 0.4 μg/1 mL, assay buffer pH 7.4, 37 °C, 1 h, HPLC
Experimental: Figure S17. (A) HPLC traces of probe 1 incubated with the cell lysates of apoptotic HeLa cells for 8 h.
Bottom: probe 1 alone; Top: reduced product (*) and cyclized product (#). (B) The content of 1-dimer after incubation with the cell lysates of apoptotic HeLa cells at different time.
For the enzyme-controlled cleavage kinetics studies, the probe 1 at different concentrations (0.1, 0.25, 0.5, 1, and 2 mM) was incubated with the caspase-3 (0.4 μg/1 mL) assay buffer (pH = 7.4) containing 50 mM HEPES, 100 mM NaCl, 1 mM EDTA, 1 mM DTT, 10% glycerol, and 0.1% CHAPS at 37 °C for 1 h, respectively. Then the caspase-3-cleaved intermediates were characterized by HPLC, and the kinetic parameters were determined according to the method reported previously. 4,5
Figure S18. Kinetic studies for the cleavage of probe 1 towards caspase-3.
Biocompatibility of 1 and 1-NPs
One cancer cell line (HeLa) and three normal cell lines (GES-1, LO2 and HEK293) were cultured in DMEM supplemented with 10% fetal bovine serum (FBS, Gibco). The cells were grown in tissue culture dishes and kept in a humidified atmosphere of 5% CO 2 at 37 °C. The […]
(1 picture or pasted object on this page, not shown here)

B1: caspase-3 (Homo sapiens) (protein)
chain 1: SGISLDNSYKMDYPEMGLCIIINNKNFHKSTGMTSRSGTDVDAANLRETFRNLKYEVRNKNDLTREEIVELMRDVSKEDHSKRSSFVCVLLSHGEEGIIFGTNGPVDLKKITNFFRGDRCRSLTGKPKLFIIQACRGTELDCGIETD
chain 2: SGVDDDMACHKIPVEADFLYAYSTAPGYYSWRNSKDGSWFIQSLCAMLKQYADKLEFMHILTRVNRKVATEFESFSFDATFHAKKQIPCIVSMLTKELYFYH
  Km: 330.43 µM
  kcat: 6.22 s⁻¹
  kcat/Km: 17617.56 M⁻¹ s⁻¹
